From patent US20120253017A1 (published 2012)

B1: mouse Stem Cell Factor, 6xHIS tag (ligand, UniProt P20826 26-190, looked up)
chain: KEICGNPVTDNVKDITKLVANLPNDYMITLNYVAGMDVLPSHCWLRDMVIQLSLSLTTLLDKFSNISEGLSNYSIIDKLGKIVDDLVLCMEENAPKNIKESPKRPETRSFTPEEFFSIFNRSIDAFKDFMVASDTSDCVLSSTLGPEKDSRVSVTKPFMLPPVAA
notes: also called mSCF; murine SCF

How the values were obtained:
Mouse cKIT ECD-H6 = target: T1, Mouse cKIT ECD-H6 (mouse, UniProt P05532 25-527); test: BIAcore, SCF on CM5 chip
T1 construct: extracellular domain; also called mouse c-kit (His tagged)
T1 sequence (looked up): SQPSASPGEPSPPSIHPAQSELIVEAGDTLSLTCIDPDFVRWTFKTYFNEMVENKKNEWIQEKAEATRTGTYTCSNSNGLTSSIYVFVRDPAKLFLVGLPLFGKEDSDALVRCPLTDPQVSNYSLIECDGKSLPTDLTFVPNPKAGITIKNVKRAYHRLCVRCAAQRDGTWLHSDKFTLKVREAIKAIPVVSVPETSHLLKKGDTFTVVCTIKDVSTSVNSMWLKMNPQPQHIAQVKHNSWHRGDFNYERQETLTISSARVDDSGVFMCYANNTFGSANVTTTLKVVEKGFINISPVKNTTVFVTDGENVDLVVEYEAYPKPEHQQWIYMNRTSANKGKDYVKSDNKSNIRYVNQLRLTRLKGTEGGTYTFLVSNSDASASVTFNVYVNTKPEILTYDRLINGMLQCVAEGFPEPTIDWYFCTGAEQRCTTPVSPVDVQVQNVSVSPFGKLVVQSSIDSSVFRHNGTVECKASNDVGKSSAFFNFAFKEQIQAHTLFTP
Procedure: (§1) Human and murine SCF were covalently attached to a CM5 BIAcore chip (GE Healthcare) in the presence of acetate pH 4 for both antigens. cKIT from various species were diluted to 1 μM in HBS-EP buffer (GE Healthcare) and run on the BIAcore in a 2-fold serial dilution to 1 nM.
(§2) Anti-human and anti-mouse SCF monoclonal antibodies (mAb) were used as controls (R&D systems).

Human cKIT ECD-Fc = target: T2, Human cKIT ECD-Fc (human, UniProt P10721 26-524); test: BIAcore, SCF on CM5 chip
T2 construct: extracellular domain; also called hcKIT; human c-KIT ECD-hIgG1 Fc fusion; not shown: human IgG1 Fc (pDOM38)
T2 sequence (P10721 26-524): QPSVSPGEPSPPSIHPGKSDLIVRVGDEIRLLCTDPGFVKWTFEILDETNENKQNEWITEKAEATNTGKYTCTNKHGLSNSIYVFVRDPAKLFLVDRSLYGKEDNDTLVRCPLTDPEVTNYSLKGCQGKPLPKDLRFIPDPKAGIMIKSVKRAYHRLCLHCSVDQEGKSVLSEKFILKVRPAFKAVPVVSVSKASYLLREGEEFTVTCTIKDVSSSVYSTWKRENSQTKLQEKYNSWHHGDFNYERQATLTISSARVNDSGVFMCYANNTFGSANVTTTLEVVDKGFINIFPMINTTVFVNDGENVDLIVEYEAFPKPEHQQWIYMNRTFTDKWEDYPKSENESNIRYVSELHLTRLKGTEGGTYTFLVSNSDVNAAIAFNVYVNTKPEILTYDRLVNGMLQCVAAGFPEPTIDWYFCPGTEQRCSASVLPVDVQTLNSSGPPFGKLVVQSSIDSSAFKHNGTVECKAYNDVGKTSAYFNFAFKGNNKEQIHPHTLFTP
Procedure: as §1, §2

[1] = target: T3, human Stem Cell Factor, 6xHIS tag (human, UniProt P21583 26-190, limits assumed); test: BIAcore, SCF on CM5 chip
T3 construct: also called hSCF; human SCF
Procedure: as §1, §2

[2] = target: B1; test: BIAcore, SCF on CM5 chip
Procedure: as §1, §2

[3] = target: T4, human c-kit on HEL-92.1.7 and KU812 cells (human, UniProt P10721 26-976); test: flow cytometry, HEL-92.1.7 cells (also YES on c-kit negative Jurkat)
T4 construct: whole, on cells
T4 sequence (P10721 26-976): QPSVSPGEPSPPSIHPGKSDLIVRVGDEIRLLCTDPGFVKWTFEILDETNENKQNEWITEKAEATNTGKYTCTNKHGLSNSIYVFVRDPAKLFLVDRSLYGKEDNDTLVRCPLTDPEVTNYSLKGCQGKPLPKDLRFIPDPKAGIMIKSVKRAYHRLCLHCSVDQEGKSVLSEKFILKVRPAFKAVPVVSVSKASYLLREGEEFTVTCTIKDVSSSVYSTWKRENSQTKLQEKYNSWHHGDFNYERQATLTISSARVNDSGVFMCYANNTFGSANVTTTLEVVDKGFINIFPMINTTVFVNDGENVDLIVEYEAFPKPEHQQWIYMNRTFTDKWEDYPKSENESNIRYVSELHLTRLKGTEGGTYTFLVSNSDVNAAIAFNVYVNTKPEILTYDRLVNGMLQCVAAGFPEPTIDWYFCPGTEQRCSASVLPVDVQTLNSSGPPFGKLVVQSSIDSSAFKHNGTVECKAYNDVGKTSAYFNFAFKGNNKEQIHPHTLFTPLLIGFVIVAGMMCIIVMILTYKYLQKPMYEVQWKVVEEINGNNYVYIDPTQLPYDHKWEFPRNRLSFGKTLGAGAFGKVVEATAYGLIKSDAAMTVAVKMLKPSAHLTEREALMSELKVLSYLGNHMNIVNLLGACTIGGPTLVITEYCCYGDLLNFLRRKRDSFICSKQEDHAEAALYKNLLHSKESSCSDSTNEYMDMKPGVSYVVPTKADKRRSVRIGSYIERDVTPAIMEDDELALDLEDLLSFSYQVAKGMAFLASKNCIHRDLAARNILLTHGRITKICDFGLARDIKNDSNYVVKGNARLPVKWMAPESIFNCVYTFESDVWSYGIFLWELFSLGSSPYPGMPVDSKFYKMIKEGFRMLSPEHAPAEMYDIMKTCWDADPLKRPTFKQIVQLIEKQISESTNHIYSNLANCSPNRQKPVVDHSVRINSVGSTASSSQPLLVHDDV

[4] = target: T5, human c-kit (recombinant, on BIAcore chip or beads) (human, UniProt P10721 26-524); test: BIAcore 2000
T5 construct: extracellular domain; also called hcKIT; biotinylated human c-kit

[5] = target: T6, cyno c-kit (recombinant, on BIAcore chip) (cynomolgus monkey); test: BIAcore, c-kit on SA chip
T6 chain: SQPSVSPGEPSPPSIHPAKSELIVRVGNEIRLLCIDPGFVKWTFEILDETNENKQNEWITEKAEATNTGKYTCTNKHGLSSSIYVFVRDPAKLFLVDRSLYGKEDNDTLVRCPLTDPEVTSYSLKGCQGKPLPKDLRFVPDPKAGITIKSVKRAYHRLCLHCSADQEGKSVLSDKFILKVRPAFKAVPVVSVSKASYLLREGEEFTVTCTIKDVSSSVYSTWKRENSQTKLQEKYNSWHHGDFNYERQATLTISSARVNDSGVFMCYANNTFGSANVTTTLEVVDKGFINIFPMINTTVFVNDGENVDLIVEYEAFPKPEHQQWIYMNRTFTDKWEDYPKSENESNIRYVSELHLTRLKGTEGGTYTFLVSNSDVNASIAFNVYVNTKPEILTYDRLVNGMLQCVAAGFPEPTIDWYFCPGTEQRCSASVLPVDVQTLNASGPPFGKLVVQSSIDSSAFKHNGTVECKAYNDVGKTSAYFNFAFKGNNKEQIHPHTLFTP
Procedure: (§3) All unique dAb clones were expressed in 50 ml cultures (OnEX plus carbenicillin) overnight at 37° C. and purified on protein A (VH dAbs) or protein L (VK dAbs). Purified dAbs were passed over a SA BIAcore chip coated with either human or mouse c-kit at 1 μM to identify those dAbs that bound specifically to either human or murine c-kit.

[6] = target: T5, human c-kit (recombinant, on BIAcore …); test: BIAcore, c-kit on SA chip
Procedure: as §3

rat cKIT ECD = target: T7, rat cKIT ECD (rat, UniProt Q63116 25-526); test: BIAcore, bad fit
T7 construct: cloned into pDOM38, which provides a human IgG1 Fc; also called rcKIT; rckit; not shown: Human IgG1 Fc (and any linker) supplied by vector pDOM38
T7 sequence (Q63116 entry or part of it limits assumed, form in doubt): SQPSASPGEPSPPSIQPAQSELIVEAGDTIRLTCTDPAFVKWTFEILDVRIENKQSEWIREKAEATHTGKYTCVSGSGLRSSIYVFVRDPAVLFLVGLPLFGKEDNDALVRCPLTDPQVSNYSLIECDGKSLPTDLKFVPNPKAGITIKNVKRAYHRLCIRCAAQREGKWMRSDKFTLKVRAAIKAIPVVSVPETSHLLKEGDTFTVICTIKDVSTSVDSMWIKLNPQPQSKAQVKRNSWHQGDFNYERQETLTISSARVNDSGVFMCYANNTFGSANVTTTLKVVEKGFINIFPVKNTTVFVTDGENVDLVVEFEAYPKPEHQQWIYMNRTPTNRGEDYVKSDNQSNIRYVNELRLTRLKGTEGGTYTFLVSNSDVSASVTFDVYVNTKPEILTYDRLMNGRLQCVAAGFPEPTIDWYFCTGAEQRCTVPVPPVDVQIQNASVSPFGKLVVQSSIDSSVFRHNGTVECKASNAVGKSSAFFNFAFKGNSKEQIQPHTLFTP

[7] = target: Myosin Light Chain (on streptavidin chip; vMLC1-sulfotag); test: BIAcore, bad fit
Myosin Light Chain (on streptavidin chip; vMLC1-sulfotag), sequence (chain, as listed by the source): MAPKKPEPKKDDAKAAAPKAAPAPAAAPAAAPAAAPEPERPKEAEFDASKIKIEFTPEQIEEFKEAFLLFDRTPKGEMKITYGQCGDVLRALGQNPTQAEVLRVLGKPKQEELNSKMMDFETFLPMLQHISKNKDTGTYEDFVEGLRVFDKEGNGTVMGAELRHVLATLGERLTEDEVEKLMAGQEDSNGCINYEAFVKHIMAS

[8] = target: T5, human c-kit (recombinant, on BIAcore …); test: BIAcore
[9] = target: T5, human c-kit (recombinant, on BIAcore …); test: BIAcore, bad fit
[10] = target: T5, human c-kit (recombinant, on BIAcore …); test: BIAcore 2000, 1 uM dAb
Procedure: All binding data was performed on a BIAcore 2000 instrument at 1 uM of dAb concentration.

[11] = target: T5, human c-kit (recombinant, on BIAcore …); test: BIAcore; remark: listed apart in the source

Q: Does B1 bind (Mouse cKIT ECD-H6)?
A: Result: no binding (tested: 1 µM)

Q: What about the Kd (Human cKIT ECD-Fc) of the same binder?
A: Its Kd is 17.7 nM.

B2: Cyno cKIT ECD-H6 (receptor)
chain: SQPSVSPGEPSPPSIHPAKSELIVRVGNEIRLLCIDPGFVKWTFEILDETNENKQNEWITEKAEATNTGKYTCTNKHGLSSSIYVFVRDPAKLFLVDRSLYGKEDNDTLVRCPLTDPEVTSYSLKGCQGKPLPKDLRFVPDPKAGITIKSVKRAYHRLCLHCSADQEGKSVLSDKFILKVRPAFKAVPVVSVSKASYLLREGEEFTVTCTIKDVSSSVYSTWKRENSQTKLQEKYNSWHHGDFNYERQATLTISSARVNDSGVFMCYANNTFGSANVTTTLEVVDKGFINIFPMINTTVFVNDGENVDLIVEYEAFPKPEHQQWIYMNRTFTDKWEDYPKSENESNIRYVSELHLTRLKGTEGGTYTFLVSNSDVNASIAFNVYVNTKPEILTYDRLVNGMLQCVAAGFPEPTIDWYFCPGTEQRCSASVLPVDVQTLNASGPPFGKLVVQSSIDSSAFKHNGTVECKAYNDVGKTSAYFNFAFKGNNKEQIHPHTLFTP
Q: Which results are given for B2?
A: Kd [1]: 369 nM; Kd [2]: 867 nM

B3: DOM28m-73 (other)
chain: EVQLLESGGGLVQPGGSLRLSCAASGFTFKHYSMNWVRQAPGKGLEWVSRISPSGVSTYYADSVKGRFTISRDNSKNTLYLQMNSLRAEDTAVYYCAKIMNSHKADEFDYWGQGTLVTVSS
notes: dAb, C-terminal FLAG tag (pDOM10)
Q: What does the source list for B3?
A: binding result [3]: binds; binding result [4]: no binding (tested: 1 uM)

B4: DOM28m-7 (other)
VH: EVQLLESGGGLVQPGGSLRLSCAASGFTFSNYAMGWVRQAPGKGLEWVSSISSSGFATYYADSVKGRFTISRDNSKNTLYLQMNSLRAEDTAVYYCAKSESRTFKAFDYWGQGTLVTVSS
notes: VH dAb, C-terminal FLAG tag (pDOM10); also called DOM28m-007
Q: Which Kd [5] does the source give for B4 here?
A: The Kd was 29 µM.

Q: And the Kd [6]?
A: Its Kd is 7.2 µM.

Q: What about the Kd (rat cKIT ECD) of the same binder?
A: The Kd was 30 nM.

B5: DMS5053 (chimeric MLC mAb-cKIT dAb, DOM28m-017) (bispecific antibody)
heavy: not shown
light: DIVMSQSPSSLAVSAGDKVTMSCKSSQSLLYSRTRKNYLAWYQQKPGQSPKLLIYWASTRQSGVPDRFTGSGSGTDFTLTISSVQAEDLAVYYCKQSYNLFTFGSGTKLEIKRTVAAPSVFIFPPSDEQLKSGTASVVCLLNNFYPREAKVQWKVDNALQSGNSQESVTEQDSKDSTYSLSSTLTLSKADYEKHKVYACEVTHQGLSSPVTKSFNRGEC
Q: B5 was tested. Which Kd [7] did it give?
A: The Kd was 0.003 nM.

Q: What about the Kd [8] of the same binder?
A: Its Kd is 36000 nM.

B6: DMS5059 (chimeric MLC mAb-cKIT dAb, DOM28m-114) (bispecific antibody)
heavy: not shown
light: DIVMSQSPSSLAVSAGDKVTMSCKSSQSLLYSRTRKNYLAWYQQKPGQSPKLLIYWASTRQSGVPDRFTGSGSGTDFTLTISSVQAEDLAVYYCKQSYNLFTFGSGTKLEIKRTVAAPSVFIFPPSDEQLKSGTASVVCLLNNFYPREAKVQWKVDNALQSGNSQESVTEQDSKDSTYSLSSTLTLSKADYEKHKVYACEVTHQGLSSPVTKSFNRGEC
Q: B6 was tested. Which Kd [7] did it give?
A: The Kd was 10 nM.

Q: What about the Kd [9] of the same binder?
A: The Kd was 8 nM.

B7: DMS5057 (chimeric MLC mAb-cKIT dAb, DOM28m-109) (bispecific antibody)
heavy: not shown
light: DIVMSQSPSSLAVSAGDKVTMSCKSSQSLLYSRTRKNYLAWYQQKPGQSPKLLIYWASTRQSGVPDRFTGSGSGTDFTLTISSVQAEDLAVYYCKQSYNLFTFGSGTKLEIKRTVAAPSVFIFPPSDEQLKSGTASVVCLLNNFYPREAKVQWKVDNALQSGNSQESVTEQDSKDSTYSLSSTLTLSKADYEKHKVYACEVTHQGLSSPVTKSFNRGEC
Q: B7 was tested. Which Kd [7] did it give?
A: Its Kd is 0.116 nM.

Q: And the Kd [8]?
A: Its Kd is 318 nM.

B8: DMS5055 (chimeric MLC mAb-cKIT dAb, DOM28m-104) (bispecific antibody)
heavy: not shown
light: DIVMSQSPSSLAVSAGDKVTMSCKSSQSLLYSRTRKNYLAWYQQKPGQSPKLLIYWASTRQSGVPDRFTGSGSGTDFTLTISSVQAEDLAVYYCKQSYNLFTFGSGTKLEIKRTVAAPSVFIFPPSDEQLKSGTASVVCLLNNFYPREAKVQWKVDNALQSGNSQESVTEQDSKDSTYSLSSTLTLSKADYEKHKVYACEVTHQGLSSPVTKSFNRGEC
Q: Which results are given for B8?
A: Kd [7]: 0.124 nM; Kd [8]: 72 nM

B9: DOM28m-23 (other)
VH: EVRLLESGGGLVQPGGSLRLSCAASGFTFRDYVMVWVRQAPGKGLEWVSAIAPTGGYTYYADSVKGRFTISRDNSKNTLYLQMNSLRAEDTAVYYCAKSLRTWLSEDLPFDYWGQGTLVTVSS
notes: VH dAb, C-terminal FLAG tag (pDOM10); also called DOM28m-023
Q: How did the Kd [5] turn out when B9 was run?
A: Its Kd is 2.72 µM.

Q: What about the Kd [6] of the same binder?
A: Its Kd is 2.9 µM.

Q: And the Kd (rat cKIT ECD)?
A: The Kd was 25 nM.

Q: And the Kd [10]?
A: The Kd was 6 µM.

Q: And the Kd [11]?
A: The Kd was 6 µM.
